# IntAct's records for PubMed 22773792
# B1: Stage VI sporulation protein D (Bacillus subtilis), P37963 (parent)
# chain: MPQNHRLQFSVEESICFQKGQEVSELLSISLDPDIRVQEVNDYVSIIGSLELTGEYNIDQNKHTEEIYTDKRFVEQVRKREDGSAELTHCFPVDITIPKNKVSHLQDVFVFIDAFDYQLTDSRILTIQADLAIEGLLDDTQDKEPEIPLYEAPAAFREEELSEPPAHSVVEEPGASSAEEAVLQHEPPAEPPELFISKAGLREELETEKAESEPPESVASEPEAREDVKEEEESEELAVPETEVRAESETEESEPEPDPSEIEIQEIVKAKKETAEPAAAIADVREEADSPAETELREHVGAEESPALEAELHSETVIAKEKEETTVSPNHEYALRQEAQNEEAAQSDQADPALCQEEAEPDEALESVSEAALSIEDSRETASAVYMENDNADLHFHFNQKTSSEEASQEELPEPAYRTFLPEQEEEDSFYSAPKLLEEEEQEEESFEIEVRKTPSAEEPKEETPFQSFQLPESSETERKETDAVPRVAPAAETKEPQTKESDNSLYLTKLFTKEADEFSRMKICIVQQEDTIERLCERYEITSQQLIRMNSLALDDELKAGQILYIPQYKNSHA
# partner: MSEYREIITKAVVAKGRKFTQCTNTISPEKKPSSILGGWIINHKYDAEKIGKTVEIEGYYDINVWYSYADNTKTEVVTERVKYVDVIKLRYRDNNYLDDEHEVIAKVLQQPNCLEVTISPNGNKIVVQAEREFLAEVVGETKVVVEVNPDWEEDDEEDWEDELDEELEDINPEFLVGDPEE
# Variants of: B1
# Settings: with cote_bacsu cotE
row,effect of a mutation on the interaction,Variant
1,decreasing interaction strength,MPQNHRLQFSVEESICFQKGQEVSELLSISLDPDIRVQEVNDYVSIIGSLELTGEYNIDQNKHTEEIYTDKRFVEQVRKREDGSAELTHCFPVDITIPKNKVSHLQDVFVFIDAFDYQLTDSRILTAQADLAIEGLLDDTQDKEPEIPLYEAPAAFREEELSEPPAHSVVEEPGASSAEEAVLQHEPPAEPPELFISKAGLREELETEKAESEPPESVASEPEAREDVKEEEESEELAVPETEVRAESETEESEPEPDPSEIEIQEIVKAKKETAEPAAAIADVREEADSPAETELREHVGAEESPALEAELHSETVIAKEKEETTVSPNHEYALRQEAQNEEAAQSDQADPALCQEEAEPDEALESVSEAALSIEDSRETASAVYMENDNADLHFHFNQKTSSEEASQEELPEPAYRTFLPEQEEEDSFYSAPKLLEEEEQEEESFEIEVRKTPSAEEPKEETPFQSFQLPESSETERKETDAVPRVAPAAETKEPQTKESDNSLYLTKLFTKEADEFSRMKICIVQQEDTIERLCERYEITSQQLIRMNSLALDDELKAGQILYIPQYKNSHA [I127A]
2,decreasing interaction strength,MPQNHRLQFSVEESICFQKGQEVSELLSISLDPDIRVQEVNDYVSIIGSLELTGEYNIDQNKHTEEIYTDKRFVEQVRKREDGSAELTHCFPVDITIPKNKVSHLQDVFVFIDAFDYQLTDSRILTIQADAAIEGLLDDTQDKEPEIPLYEAPAAFREEELSEPPAHSVVEEPGASSAEEAVLQHEPPAEPPELFISKAGLREELETEKAESEPPESVASEPEAREDVKEEEESEELAVPETEVRAESETEESEPEPDPSEIEIQEIVKAKKETAEPAAAIADVREEADSPAETELREHVGAEESPALEAELHSETVIAKEKEETTVSPNHEYALRQEAQNEEAAQSDQADPALCQEEAEPDEALESVSEAALSIEDSRETASAVYMENDNADLHFHFNQKTSSEEASQEELPEPAYRTFLPEQEEEDSFYSAPKLLEEEEQEEESFEIEVRKTPSAEEPKEETPFQSFQLPESSETERKETDAVPRVAPAAETKEPQTKESDNSLYLTKLFTKEADEFSRMKICIVQQEDTIERLCERYEITSQQLIRMNSLALDDELKAGQILYIPQYKNSHA [L131A]

# Variants of: B1
# Settings: with cote_bacsu cotE
# Remark: another data set of the same source
row,effect of a mutation on the interaction,Variant
1,disrupting interaction,MPQNHRLQFSVEESICFQKGQEVSELLSISLDPDIRVQEVNDYVSIIGSLELTGEYNIDQNKHTEEIYTDKRFVEQVRKREDGSAELTHCFPVDITIPKNKVSHLQDVFVFIDAFDYQLTDSRILTIQADAAIEGLLDDTQDKEPEIPLYEAPAAFREEELSEPPAHSVVEEPGASSAEEAVLQHEPPAEPPELFISKAGLREELETEKAESEPPESVASEPEAREDVKEEEESEELAVPETEVRAESETEESEPEPDPSEIEIQEIVKAKKETAEPAAAIADVREEADSPAETELREHVGAEESPALEAELHSETVIAKEKEETTVSPNHEYALRQEAQNEEAAQSDQADPALCQEEAEPDEALESVSEAALSIEDSRETASAVYMENDNADLHFHFNQKTSSEEASQEELPEPAYRTFLPEQEEEDSFYSAPKLLEEEEQEEESFEIEVRKTPSAEEPKEETPFQSFQLPESSETERKETDAVPRVAPAAETKEPQTKESDNSLYLTKLFTKEADEFSRMKICIVQQEDTIERLCERYEITSQQLIRMNSLALDDELKAGQILYIPQYKNSHA [L131A]
